Laboratory results: PMC10303687

Biological target: MDM2_(D. rerio) SWIB domain (zebra fish (Danio rerio))
Assay: stopped-flow fluorescence kinetics; 10°C, 20 mM sodium phosphate pH 7.4, 150 mM NaCl, 1 mM TCEP; Trp23 emission; MDM2 constant at 0.5–2 μM, p53TAD varied 1–10 μM for k on; k off from displacement of the 1 μM:1 μM complex by 10–20 μM dansylated human p53TAD peptide; K D = k off/k on

Row | Substance | Kd [µM] | koff [s⁻¹] | kon [M⁻¹ s⁻¹]
1 | p53TAD_(D. rerio)^14–27 (peptide) | 1.9 | 31 | 1.59e+07
2 | p53TAD_(D. rerio)^N26L (peptide) | 0.34 | 5.2 | 1.55e+07
3 | p73TAD_(D. rerio) (peptide) | 0.12 | 3.7 | 3.2e+07
